T1: Boi1 SH3 (BOI1_YEAST), P38041
T1 chain: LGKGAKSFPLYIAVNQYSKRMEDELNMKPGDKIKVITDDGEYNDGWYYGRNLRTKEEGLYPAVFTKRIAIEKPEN

T2: Boi2 SH3 (BOI2_YEAST), P39969
T2 chain: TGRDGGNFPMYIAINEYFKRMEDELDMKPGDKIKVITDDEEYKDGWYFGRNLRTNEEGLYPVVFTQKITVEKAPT

T3: Rvs167 SH3 (RV167_YEAST), P39743
T3 chain: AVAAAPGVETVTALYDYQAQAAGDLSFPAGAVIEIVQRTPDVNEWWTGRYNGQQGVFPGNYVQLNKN

T4: Yfr024 SH3 (LSB3_YEAST), P43603
T4 chain: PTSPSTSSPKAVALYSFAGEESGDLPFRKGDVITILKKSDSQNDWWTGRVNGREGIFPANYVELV

T5: Yhr016c SH3 (YSC84_YEAST), P32793
T5 chain: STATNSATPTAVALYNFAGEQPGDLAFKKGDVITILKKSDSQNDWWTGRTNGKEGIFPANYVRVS


Experiments:
Experiment in all cases: SPOT array
[1] = biological target: T1, Boi1 SH3 (BOI1_YEAST), P38041
[2] = biological target: T2, Boi2 SH3 (BOI2_YEAST), P39969
[3] = biological target: T3, Rvs167 SH3 (RV167_YEAST), P39743
[4] = biological target: T4, Yfr024 SH3 (LSB3_YEAST), P43603
[5] = biological target: T5, Yhr016c SH3 (YSC84_YEAST), P32793

Binder | normalised SPOT signal, Boehringer light units (BLU); mean over the file's lines of this peptide [1] | normalised SPOT signal, Boehringer light units (BLU); mean over the file's lines of this peptide [2] | normalised SPOT signal, Boehringer light units (BLU); mean over the file's lines of this peptide [3] | normalised SPOT signal, Boehringer light units (BLU); mean over the file's lines of this peptide [4] | normalised SPOT signal, Boehringer light units (BLU); mean over the file's lines of this peptide [5]
VSDPYVPTRNTFNY [YDL020C 142-155] | 174 | 23.2 | 60.9 | 814 | 268
VTLPISPSRASISF [YGL235W 70-83] | 52.6 | 33.4 | 25.8 | 951 | 79.2
VNTPREPVRSSSKI [YJL076W 1015-1028] | 75.8 | 30.9 | 69.7 | 910 | 99.4
VSIPFDPSKDTFDH [YEL031W 741-754] | 105 | 34.1 | 72.7 | 0 | 70.3
VSTPPVPKKFQEIF [YDL107W 9-22] | 62.2 | 35.5 | 53.6 | 695 | 55.4
VPPPNVPKKDKREV [YBR058C 659-672] | 294 | 17.8 | 124 | 980 | 206
VPSPIVPNKMRKQL [YKL052C 214-227] | 530 | 126 | 202 | 2650 | 191
VQQPEDPLRVLGEY [YDR469W 143-156] | 24.5 | 16.6 | 37.1 | 46.1 | 65.5
VTLPTGPAKIIWEK [YHR007C 510-523] | 94.8 | 19.3 | 24.1 | 38.2 | 143

Next, values leading:

normalised SPOT signal, Boehringer light units (BLU); mean over the file's lines of this peptide [1] | normalised SPOT signal, Boehringer light units (BLU); mean over the file's lines of this peptide [2] | normalised SPOT signal, Boehringer light units (BLU); mean over the file's lines of this peptide [3] | normalised SPOT signal, Boehringer light units (BLU); mean over the file's lines of this peptide [4] | normalised SPOT signal, Boehringer light units (BLU); mean over the file's lines of this peptide [5] | Binder
494 | 232 | 3250 | 23000 | 3880 | VPRPSPPIRRKSST [YNL106C 1070-1083]
41.2 | 25.6 | 32.6 | 323 | 97.4 | VSPPFFPEKELNNR [YKR010C 454-467]
61.9 | 17 | 23.1 | 1200 | 425 | VPEPSKPSRLLLVR [YNL034W 549-562]
16.2 | 12.4 | 19.5 | 136 | 157 | VPDPSTPSKPNLEV [YML016C 62-75]
253 | 83.6 | 58 | 413 | 387 | VMVPHLPGKILLSN [YOR357C 104-117]
53.1 | 55.9 | 52.6 | 4140 | 845 | VQTPHVPDRPPSQL [YPR104C 731-744]
80.3 | 25.5 | -0 | 141 | 217 | VPSPGLPEKVNEKS [YLR119W 34-47]
164 | 19 | 1 | 861 | 136 | VTKPVVPKKTKKSA [YLR087C 319-332]
